Experimental data from patent US20120064065A1 (AC IMMUNE S A, published 2012).

Legend:
[1] = target: T1, murine Aβ1-42 peptide (murine, UniProt P12023 672-713); test: Aβ ELISA
T1 construct: domain: Aβ1-42
T1 peptide (looked up): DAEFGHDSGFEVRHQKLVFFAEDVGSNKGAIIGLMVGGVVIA

[2] = target: T2, human FcγRIIIa-V158, extracellular domain with C-terminal Gly/6xHis/GST tag (human, UniProt P08637 17-208); test: ELISA, cross-linked antibody on anti-GST-captured FcγRIIIa-V158
T2 construct: extracellular domain; Made by Genentech; captured on the plate through an anti-GST antibody; V158 is the allotype as printed; not shown: Gly/6xHis/glutathione S transferase (GST) polypeptide tag at the C terminus
T2 sequence (P08637 17-208 F176V): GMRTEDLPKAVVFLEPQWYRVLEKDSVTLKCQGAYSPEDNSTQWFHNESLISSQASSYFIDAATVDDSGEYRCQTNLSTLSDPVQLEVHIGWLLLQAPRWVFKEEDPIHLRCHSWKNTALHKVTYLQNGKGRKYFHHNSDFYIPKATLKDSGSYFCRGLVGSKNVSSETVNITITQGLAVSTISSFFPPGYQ

- binding result [1]: binds
- binding result [2]: binds
B1: MABT humanized anti-Aβ IgG4 monoclonal antibody (antibody)
heavy: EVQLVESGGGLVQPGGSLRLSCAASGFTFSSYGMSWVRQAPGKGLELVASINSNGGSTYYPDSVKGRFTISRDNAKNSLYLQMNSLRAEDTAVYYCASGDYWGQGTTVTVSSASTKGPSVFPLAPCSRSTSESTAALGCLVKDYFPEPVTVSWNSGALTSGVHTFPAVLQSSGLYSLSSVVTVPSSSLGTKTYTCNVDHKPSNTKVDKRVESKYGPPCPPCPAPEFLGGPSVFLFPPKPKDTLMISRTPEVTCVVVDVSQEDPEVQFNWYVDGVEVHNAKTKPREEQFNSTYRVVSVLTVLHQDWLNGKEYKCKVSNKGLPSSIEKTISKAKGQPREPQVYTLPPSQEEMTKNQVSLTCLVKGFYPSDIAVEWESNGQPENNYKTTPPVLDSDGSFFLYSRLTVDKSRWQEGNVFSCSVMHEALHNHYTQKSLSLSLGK
light: DIVMTQSPLSLPVTPGEPASISCRSSQSLVYSNGDTYLHWYLQKPGQSPQLLIYKVSNRFSGVPDRFSGSGSGTDFTLKISRVEAEDVGVYYCSQSTHVPWTFGQGTKVEIKRTVAAPSVFIFPPSDEQLKSGTASVVCLLNNFYPREAKVQWKVDNALQSGNSQESVTEQDSKDSTYSLSSTLTLSKADYEKHKVYACEVTHQGLSSPVTKSFNRGEC
notes: also called anti-Aβ MABT; MABT IgG4
